Numbering of substitutions follows the chain as printed. Values belong to the binder of their own block, whether it stands above or below them.
Legend:
[1] = biological target: the molecule itself; assay: analytical ultracentrifugation, sedimentation velocity; monomer/dimer self-association
[2] = biological target: the molecule itself; assay: analytical ultracentrifugation, sedimentation equilibrium; monomer/dimer self-association
TNFR1-FC fusion [3] = biological target: T1, TNFR1-FC fusion (human, UniProt P19438 30-211, limits assumed); assay: TNFR1 receptor binding assay: TNFR1-Fc on beads, TNF-alpha 10 ng/ml, ABI 8200; average of 3 experiments
T1 construct: not shown: Fc part, captured by goat anti-human IgG; not described further
T1 sequence (looked up): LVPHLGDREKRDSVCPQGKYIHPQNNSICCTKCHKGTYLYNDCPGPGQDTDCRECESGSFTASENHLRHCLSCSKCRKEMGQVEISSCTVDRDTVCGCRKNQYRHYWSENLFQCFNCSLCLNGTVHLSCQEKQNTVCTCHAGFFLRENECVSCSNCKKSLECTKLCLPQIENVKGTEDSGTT

[4] = biological target: T2, human TNFR1, soluble recombinant protein (human, UniProt P19438 22-211, limits assumed, biotinylated in the BIAcore assays (coupling via primary amines)); assay: BIAcore 3000, dAb over biotinylated human TNFR1 (1400 RU) on SA chip, 1:1 fit, 25 C, mean of 3 experiments
T2 construct: also called biotinylated TNFR1; human recombinant E. coli-expressed human TNFR1
T2 sequence (looked up): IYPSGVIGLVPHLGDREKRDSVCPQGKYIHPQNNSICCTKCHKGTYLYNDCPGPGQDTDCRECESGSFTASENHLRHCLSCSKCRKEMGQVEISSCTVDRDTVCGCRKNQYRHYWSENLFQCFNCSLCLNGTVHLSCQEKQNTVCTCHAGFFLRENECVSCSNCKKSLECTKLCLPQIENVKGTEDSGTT

TNFR1-FC fusion [5] = biological target: T1, TNFR1-FC fusion; assay: TNFR-1 receptor binding assay (RBA): inhibition of the binding of TNF-alpha to TNFR1 by the dAb; T0 sample
TNFR1-FC fusion [6] = biological target: T1, TNFR1-FC fusion; assay: TNFR-1 receptor binding assay (RBA): inhibition of the binding of TNF-alpha to TNFR1 by the dAb; sample after 14 days at 50 C in Britton-Robinson buffer, concentration assumed to be 1 mg/ml
TNFR1 on MRC-5 cells = biological target: T3, TNFR1 on MRC-5 cells (UniProt P19438 30-455, limits assumed); assay: cell-based or functional assay
T3 sequence (looked up): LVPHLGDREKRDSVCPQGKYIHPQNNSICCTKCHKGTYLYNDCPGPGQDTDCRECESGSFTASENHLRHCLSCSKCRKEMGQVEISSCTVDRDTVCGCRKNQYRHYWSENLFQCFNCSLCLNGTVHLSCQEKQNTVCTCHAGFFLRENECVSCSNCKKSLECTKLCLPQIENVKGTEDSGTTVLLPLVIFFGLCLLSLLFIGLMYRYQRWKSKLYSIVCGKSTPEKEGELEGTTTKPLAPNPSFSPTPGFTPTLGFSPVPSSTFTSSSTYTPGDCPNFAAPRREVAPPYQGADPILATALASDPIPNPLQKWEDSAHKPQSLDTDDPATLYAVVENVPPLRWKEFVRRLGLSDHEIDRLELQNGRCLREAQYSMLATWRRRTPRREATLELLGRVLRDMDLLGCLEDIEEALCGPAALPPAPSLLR

TNFR1-FC fusion [7] = biological target: T1, TNFR1-FC fusion; assay: human TNFR1 receptor binding assay; dAb blocks binding of TNF-alpha (10 ng/ml) to bead-captured TNFR1-Fc; four replicates
[8] = biological target: the molecule itself; assay: analytical ultracentrifugation, sedimentation equilibrium; monomer/dimer self-association; self-association (monomer to dimer) of the dAb by AUC sedimentation equilibrium, 0.5 mg/ml to 5 mg/ml
[9] = biological target: the molecule itself; assay: analytical ultracentrifugation, sedimentation equilibrium; self-association
recombinant human VEGF [10] = biological target: T4, recombinant human VEGF (human, UniProt P15692-4 27-191, limits assumed, biotinylated in the selections, phage ELISA and BIAcore screening); assay: BIAcore kinetics
T4 construct: also called hVEGF; VEGFA
T4 sequence (P15692 other isoform, or with tags, fused parts or gaps limits assumed): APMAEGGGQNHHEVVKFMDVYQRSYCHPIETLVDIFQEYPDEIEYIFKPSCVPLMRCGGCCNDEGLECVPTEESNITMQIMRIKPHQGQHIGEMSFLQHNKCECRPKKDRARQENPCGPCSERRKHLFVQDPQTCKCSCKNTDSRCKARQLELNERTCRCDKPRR

recombinant human VEGF [11] = biological target: T4, recombinant human VEGF; assay: receptor binding assay
recombinant human VEGF [12] = biological target: T4, recombinant human VEGF; assay: RBA assay; taken as the Fc fusion of the row
IL-1R1 = biological target: T5, IL-1R1 (UniProt P14778 18-332, limits assumed); assay: Receptor Binding Assay, inhibition of IL-1 binding to IL-R1
T5 construct: also called IL-R1
T5 sequence (looked up): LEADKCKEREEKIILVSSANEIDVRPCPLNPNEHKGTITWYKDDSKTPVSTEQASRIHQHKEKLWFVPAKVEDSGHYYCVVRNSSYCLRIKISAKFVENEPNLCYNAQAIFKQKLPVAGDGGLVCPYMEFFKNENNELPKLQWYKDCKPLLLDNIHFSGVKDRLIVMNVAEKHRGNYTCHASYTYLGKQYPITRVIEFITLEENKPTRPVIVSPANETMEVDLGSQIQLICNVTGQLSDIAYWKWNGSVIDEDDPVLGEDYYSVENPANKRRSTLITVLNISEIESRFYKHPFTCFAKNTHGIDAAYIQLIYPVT

EC50 (TNFR1-FC fusion [3]): 0.11 nM | Kd [4]: 0.55 nM | IC50 (read off the curve) (TNFR1-FC fusion [5]): ~0.1 nM | IC50 (read off the curve) (TNFR1-FC fusion [6]): ~0.1 nM
B1: DOM1h-131-202 (other)
VH: EVQLLESGGGLVQPGGSLRLSCAASGFTFAHETMVWVRQAPGKGLEWVSHIPPDGQDPFYADSVKGRFTISRDNSKNTLYLQMNSLRAEDTAVYYCALLPKRGPWFDYWGQGTLVTVSS
notes: human VH dAb against TNFR1; also called GSK1922567A
Kd [1]: 1000 nM | Kd [2]: 1300 nM

ND50 nM, MRC-5 cell-based assay (230307CE) (TNFR1 on MRC-5 cells): 1.89 nM
B2: DOM1h-131-204 (other)
VH: B1 VH with L5S, K101N

ND50 nM, MRC-5 cell-based assay (230307CE) (TNFR1 on MRC-5 cells): 0.71 nM | EC50 (TNFR1-FC fusion [3]): 0.07 nM | Kd [4]: 0.47 nM | IC50 (read off the curve) (TNFR1-FC fusion [7]): ~0.07 nM
B3: DOM1h-131-206 (other)
VH: B1 VH with Y95H
notes: human VH dAb against TNFR1; also called GSK1995057A
Kd [8]: 360000 nM

ND50 nM, MRC-5 cell-based assay (230307CE) (TNFR1 on MRC-5 cells): 2.28 nM
B4: DOM1h-131-203 (other)
VH: B1 VH with L5W, F106I

ND50 nM, MRC-5 cell-based assay (230307CE) (TNFR1 on MRC-5 cells): 1.89 nM | EC50 (TNFR1-FC fusion [3]): 0.19 nM | Kd [4]: 1.07 nM | IC50 (read off the curve) (TNFR1-FC fusion [7]): ~0.2 nM
B5: DOM1h-131-511 (other)
VH: B1 VH with D54V
notes: human VH domain antibody (dAb) against TNFR1; also called GSK1995056A
binding result [9]: binds

Kd (recombinant human VEGF [10]): 23.6 nM | EC50 (recombinant human VEGF [11]): 10.2 nM
B6: DOM15-10 (other)
VL: DIQMTQSPSSLSASVGDRVTITCRASQWIGPELSWYQQKPGKAPKLLIYHTSILQSGVPSRFSGSGSGTDFTLTISSLQPEDFATYYCQQYMFQPRTFGQGTKVEIRR
notes: VK dAb against VEGF

Activity (nM), RBA assay (recombinant human VEGF [12]): 0.913 nM
B7: DMS1546 (Fc fusion)
VL: B6 VL
modifications: disulfide-linked homodimer of this chain (bivalent dAb-Fc)
notes: dAb-Fc; also called DOM15-10 Fc fusion; not shown: TVAAPS linker and human IgG1 Fc

Activity (nM), RBA assay (recombinant human VEGF [12]): 0.577 nM
B8: DMS1531 (Fc fusion)
VL: B6 VL with S34R, R96M, R108G
modifications: disulfide-linked homodimer of this chain (bivalent dAb-Fc)
notes: dAb-Fc; also called DOM15-10-11 Fc fusion; not shown: TVAAPS linker and human IgG1 Fc

Kd (recombinant human VEGF [10]): 14.6 nM | EC50 (recombinant human VEGF [11]): 3.58 nM
B9: DOM15-10-11 (other)
VL: B6 VL with S34R, R96M, R108G
notes: VK dAb against VEGF, trypsin-selected variant of DOM15-10

IC50 (IL-1R1): 0.28 nM
B10: DOM4-130-54 (other)
VL: DIQMTQSPSSLSASVGDRVTITCRASQDIYLNLDWYQQKPGKAPKLLINFGSELQSGVPSRFSGSGYGTDFTLTISSLQPEDFATYYCQPSFYFPYTFGQGTKVEIKR
notes: VK domain antibody (dAb) against IL-1R1

IC50 (IL-1R1): 0.257 nM
B11: DOM4-130-201 (other)
VL: B10 VL with N49K, S77N, R108W
notes: VK dAb against IL-1R1, trypsin-selected variant of DOM4-130-54

IC50 (IL-1R1): 0.254 nM
B12: DOM4-130-202 (other)
VL: B10 VL with T22S, N49S, F83S, F94Y
notes: as for B11
